B1: Fam20C (93–584), recombinant (enzyme, human, UniProt Q8IXL6 93-584, looked up)
chain: DFSSDPSSNLSSHSLEKLPPAAEPAERALRGRDPGALRPHDPAHRPLLRDPGPRRSESPPGPGGDASLLARLFEHPLYRVAVPPLTEEDVLFNVNSDTRLSPKAAENPDWPHAGAEGAEFLSPGEAAVDSYPNWLKFHIGINRYELYSRHNPAIEALLHDLSSQRITSVAMKSGGTQLKLIMTFQNYGQALFKPMKQTREQETPPDFFYFSDYERHNAEIAAFHLDRILDFRRVPPVAGRMVNMTKEIRDVTRDKKLWRTFFISPANNICFYGECSYYCSTEHALCGKPDQIEGSLAAFLPDLSLAKRKTWRNPWRRSYHKRKKAEWEVDPDYCEEVKQTPPYDSSHRILDVMDMTIFDFLMGNMDRHHYETFEKFGNETFIIHLDNGRGFGKYSHDELSILVPLQQCCRIRKSTYLRLQLLAKEEYKLSLLMAESLRGDQVAPVLYQPHLEALDRRLRVVLKAVRDCVERNGLHSVVDDDLDTEHRAASAR
notes: human Fam20C, residues 93-584; also called recombinant Fam20C; source: Hi5 insect cells, purified from the conditioned medium (MBP tag removed by TEV protease digestion and gel filtration)
B2: Fam20A (63–529), recombinant (domain or fragment, human, UniProt Q96MK3 63-529, looked up)
chain: DPGTIVHNFSRTEPRTEPAGGSHSGSSSKLQALFAHPLYNVPEEPPLLGAEDSLLASQEALRYYRRKVARWNRRHKMYREQMNLTSLDPPLQLRLEASWVQFHLGINRHGLYSRSSPVVSKLLQDMRHFPTISADYSQDEKALLGACDCTQIVKPSGVHLKLVLRFSDFGKAMFKPMRQQRDEETPVDFFYFIDFQRHNAEIAAFHLDRILDFRRVPPTVGRIVNVTKEILEVTKNEILQSVFFVSPASNVCFFAKCPYMCKTEYAVCGNPHLLEGSLSAFLPSLNLAPRLSVPNPWIRSYTLAGKEEWEVNPLYCDTVKQIYPYNNSQRLLNVIDMAIFDFLIGNMDRHHYEMFTKFGDDGFLIHLDNARGFGRHSHDEISILSPLSQCCMIKKKTLLHLQLLAQADYRLSDVMRESLLEDQLSPVLTEPHLLALDRRLQTILRTVEGCIVAHGQQSVIVDGPVEQ
notes: human Fam20A, residues 63-529; Cloned into a modified pI-secSUMOstar vector in which the SUMO tag was replaced by an MBP tag and a TEV site; also called recombinant Fam20A; source: Hi5 insect cells, purified from the conditioned medium (MBP tag removed by TEV protease digestion and gel filtration)

How the values were obtained:
[1] = biological target: the molecule itself; test: SEC; one purified protein alone on Superdex 200 in 25 mM Tris-HCl pH 7.4, 150 mM NaCl; oligomeric state judged from the elution profile
[2] = biological target: B1; test: SEC; two purified proteins (1 mg/ml each) incubated on ice for 2 hr, then Superdex 200 in 25 mM Tris-HCl pH 7.4, 150 mM NaCl; fractions on SDS-PAGE, Coomassie; conditions: both partners purified
[3] = biological target: B1; test: cell-based or functional assay

Binder | stoichiometry N [1] | stoichiometry N [2] | Km of Fam20C (2 μg/ml) for ENAM (173–277) S191A with excess Fam20A (40 μg/ml); 14.6 μM without Fam20A, a ∼2.5-fold decrease [3] [µM] | kcat of Fam20C (2 μg/ml) for ENAM (173–277) S191A with excess Fam20A (40 μg/ml); 0.04 s^−1 without Fam20A, a 19-fold increase [3] [s⁻¹]
B1 | 2 |  |  | 
B2 |  | 1 | 5.6 | 0.76

Reference: publication PMC4421793, “A secretory kinase complex regulates extracellular protein phosphorylation” (eLife, 2015)
